Measured values from patent publication US20110135634A1, “METHODS OF INHIBITING INFECTION BY DIVERSE SUBTYPES OF DRUG-RESISTANT HIV-1” (priority 2007, published 2011).

Key:
[1] = tested on: reporter viruses pseudotyped with HIV-1SF162 envelope (U87-CD4-CCR5 cells); assay: HIV-1 pseudovirus assay, SF162 envelope; type: cell-based
From the text: A self-inactivating (SIN) vector was derived from the pNL4-3ΔEnv-luciferase vector (Dragic et al. 1996) by deleting 507 basepairs in the U3 region of the 3′ long terminal repeat (LTR) so as to remove the TATA box and transcription factor binding sites. The human cytomegalovirus promoter was inserted upstream of the luciferase (luc) gene to enable expression of luciferase following integration.
Reporter viruses pseudotyped with HIV-1JR-FL or HIV-1SF162 envelopes were generated by cotransfection of 293T cells with the SIN vector and the appropriate pcDNA env-expressing vector as previously described (Dragic et al. 1996). […] Cultures were incubated for 72 h at 37° C. in DMEM containing 10% fetal bovine serum, […] puromycin, 0.3 mg/mL geneticin, antibiotics, and 0.5% DMSO. Luciferase activity (relative light units or RLU) was measured using. BrightGlo reagent (Promega, Madison, Wis.) according to the manufacturer's instructions.
Experimental design and data analysis were based on the combination index (CI) method (Chou et al. 1991; Chou et al. 1984). […] The mutually exclusive CI formula was used for combinations of CCR5 inhibitors, while the mutually non-exclusive formula was utilized for combinations of inhibitors to distinct targets (Chou et al. 1991). Each test was conducted 4-12 times. Synergy, additivity and antagonism are indicated by CI<1, CI=1 and CI>1, respectively.

HIV-1 = conditions: Olson et al., 1999; Trkola et al., 2001; cited from earlier work
[2] = human, in vivo
Description: Individuals were treated in sequential, dose-rising cohorts of 5 subjects (4 active and 1 placebo) each and evaluated for up to 120 days post-treatment. […] Safety assessments consisted of monitoring the following: vital signs (blood pressure, pulse, temperature, etc; hematology (hemoglobin, hematocrit, leukocytes, platelets, etc.); serum chemistries (AST/ALT, alkaline phosphatase, BUN, creatinine, etc.); urinalysis (pH, specific gravity, protein, glucose, leukocytes, etc.); and ECGs (12-lead).
Sera were diluted as appropriate and combined with L1.2-CCR5 cells, which are mouse pre-B lymphoma cells engineered to stably express human CCR5. […] Following incubation with test samples, cells were washed and combined with a FITC-labeled sheep antibody against human IgG4 (The Binding Site Limited, Cat. #AF009). Cells were washed again and analyzed by flow cytometry.
Serum was collected post-treatment, cryopreserved, and analyzed for PRO 140 levels. Peak serum concentrations ranged to […] at 0.1 mg/kg and […] at 0.5 mg/kg.

[3] = tested on: CCR5-tropic envelope-complemented luciferase-expressing HIV-1 reporter viruses; assay: PhenoSense HIV Entry Assay on U87-CD4/CCR5 cells; type: cell-based; set-up: key to Mean FC / FC: fold change in drug susceptibility vs DUAL (92HT594) reference envelope
From the text: Of these, 10 isolates were derived from viruses with high-level resistance to protease (PR) and/or reverse transcriptase (RT) inhibitors. Four additional isolates incorporated the major enfuvirtide-conferring mutations in an HIV-1JR-CSF envelope background. […] EC50 values for test isolates were divided by the EC50 for a well-characterized reference virus (HIV-192HT594) to yield fold-change (FC) values.
A PhenoSense™ HIV Entry assay (Whitcomb et al, Antimicrobial Agents and Chemotherapy, 51:566, 2007) has been developed by modifying the PhenoSense HIV assay and is illustrated schematically in FIGS. 21 and 22. The assay uses nucleic acid amplification (RT-PCR) to derive HIV envelope sequences (gp160) from HIV(+) patient plasma samples or other sources. Amplified envelope sequences were incorporated into a proprietary expression vector (pCXAS) using conventional cloning methods. Envelope expression vectors were prepared as large pools of sequences (>200) in order to assure that the diversity of sequences accurately represents the diversity of viral quasispecies in the specimen at the time of sample collection. Recombinant HIV-1 stocks expressing virus envelope proteins were prepared by co-transfecting HEK293 cells with a HIV-1 genomic viral vector and an appropriate envelope expression vector. The HIV-1 genomic vector is replication defective and contains a luciferase expression cassette within a deleted region of the HIV envelope gene. Following transfection, recombinant virus particles were harvested and used to inoculate two U87 cell lines expressing CD4 and the CCR5 or CXCR4 co-receptor (U87-CD4/CCR5 and U87-CD4/CXCR4 cells, respectively). […] Drug susceptibility was measured by comparing the amount of luciferase activity produced in the presence of entry inhibitors to the amount of luciferase activity produced in absence of entry inhibitors. Entry inhibitor activity was evaluated at ten serial drug concentrations. Data were analyzed by plotting percent inhibition of luciferase activity vs. log10 drug concentration.
The 31 viruses used in this study were CCR5-tropic and were selected from Monogram Biosciences' Specimen Library. The panel included four of each subtypes A, B, C, D, F, and G viruses and three subtype J virus (Table 17). Of the 31 viruses examined, 17 were wildtype (WT), 10 were resistant to protease (PR) and/or reverse transcriptase (RT) inhibitors and 4 were enfuvirtide-resistant site-directed mutants (SDMs). The enfuvirtide-resistant viruses included envelopes with amino acid substitutions at positions 36-38 (GIV motif) and 43 within heptad repeat 1 (HR-1) and were introduced by site-directed mutagenesis into gp41 transmembrane (TM) sequence of the JRCSF envelope, as shown in Table 16.
DUAL (92HT594) is an envelope expression vector derived from a drug-naive reference virus that can efficiently infect cells expressing both the CD4 receptor and the CCR5 or CXCR4 co-receptor molecules on the cell surface. The DUAL envelope control was used to determine the fold changes in drug susceptibility of samples evaluated on U87-CD4/CCR5 cells. The DUAL control was also tested in each assay batch to evaluate and monitor assay performance over time.
JRCSF is an envelope expression vector derived from a drug-naive reference virus that can efficiently infect cells expressing both the CD4 receptor and the CCR5 co-receptor molecules on the cell surface.
Susceptibility data were analyzed by plotting percent inhibition of luciferase activity vs. log10 drug concentration.

[4] = SF162, labelled 1st inhibitor with 2nd inhibitor PRO 140 (equimolar; 1:10 PRO 140 to nevirapine or zidovudine)

B1: PRO 140: humanized IgG4,κ anti-CCR5 mAb being developed for HIV-1 therapy (antibody, chains of the INN, looked up, V domains shown)
VH: EVQLVESGGGLVKPGGSLRLSCAASGYTFSNYWIGWVRQAPGKGLEWIGDIYPGGNYIRNNEKFKDKTTLSADTSKNTAYLQMNSLKTEDTAVYYCGSSFGSNYVFAWFTYWGQGTLVTVSS
VL: DIVMTQSPLSLPVTPGEPASISCRSSQRLLSSYGHTYLHWYLQKPGQSPQLLIYEVSNRFSGVPDRFSGSGSGTDFTLKISRVEAEDVGVYYCSQSTHVPLTFGQGTKVEIK
Question: For B1, which IC50 ([1]; HIV-1 envelope SF162, 1st inhibitor alone, read-out: IC50) is on record?
Answer: 1.3 nM

Question: And the IC90 ([1]; HIV-1 envelope SF162, 1st inhibitor alone, read-out: IC90)?
Answer: 20 nM

Question: What about the CI50 [1, 4] of the same molecule?
Answer: 1.0 ± 0.27

Question: And the CI90 [1, 4]?
Answer: 0.86 ± 0.33

Question: And the IC90 (HIV-1)?
Answer: about 4 μg/ml

Question: What about the terminal serum half-life [2] of the same molecule?
Answer: 240 to 288 h

Question: And the “median IC50” value ([3]; 27 viruses representing different genetic subtypes)?
Answer: 0.44 µg/mL

Question: And the “range of FC values” ([3]; 31 test viruses, relative to HIV-1 92HT594)?
Answer: 0.28-4.1

Question: What about the “mean EC50” value ([3]; all 31 test viruses) of the same molecule?
Answer: 0.50 ± 0.27 µg/mL

Question: What about the “Mean FC” value ([3]; all 31 test viruses, relative to reference virus HIV-1 92HT594) of the same molecule?
Answer: 1.5±0.8

Question: What about the FC ([3]; envelopes from PR/RT-resistant viruses) of the same molecule?
Answer: 1.4±1.0

Question: What about the “mean IC50” value ([3]; four enfuvirtide-resistant SDMs) of the same molecule?
Answer: 0.82 µg/mL

Question: And the “IC50, Average” value ([3]; panel of 31 viruses)?
Answer: 0.5096 µg/mL

Question: And the “IC50, Max” value ([3]; panel of 31 viruses)?
Answer: 1.4329 µg/mL

Question: And the “IC50, Median” value ([3]; panel of 31 viruses)?
Answer: 0.4418 µg/mL

Question: And the “IC50, Min” value ([3]; panel of 31 viruses)?
Answer: 0.0955 µg/mL

Question: And the “Mean FC” value ([3]; subtype A)?
Answer: 1.0±0.4

Question: What about the “Mean FC” value ([3]; subtype B) of the same molecule?
Answer: 1.5±0.2

Question: And the “Mean FC” value ([3]; subtype C)?
Answer: 0.94±0.5

Question: What about the “Mean FC” value ([3]; subtype D) of the same molecule?
Answer: 1.4±0.6

Question: And the “Mean FC” value ([3]; subtype F)?
Answer: 1.5±0.7

Question: What about the “Mean FC” value ([3]; subtype G) of the same molecule?
Answer: 1.8±1.6

Question: What about the “Mean FC” value ([3]; subtype J) of the same molecule?
Answer: 1.2±0.4
